{"source": "patent US6843989", "about": "(Seagen, dated 2005)", "molecules": {"B1": {"name": "anti-CD40 mAb G28-5 (antibody, V domains shown)", "VH": "DIQLQQSGPGLVKPSQSLSLTCSVTGYSITTNYNWNWIRQFPGNKLEWMGYIRYDGTSEYTPSLKNRVSITRDTSMNQFFLRLTSVTPEDTATYYCARLDYWGQGTSVTVSS", "VL": "DAVMTQNPLSLPVSLGDEASISCRSSQSLENSNGNTFLNWFFQKPGQSPQLLIYRVSNRFSGVPDRFSGSGSGTDFTLKISRVEAEDLGVYFCLQVTHVPYTFGGGTTLEIK"}, "B2": {"name": "monoclonal antibody S2C6 (antibody, V domains shown)", "VH": "EVQLQQSGPDLVKPGASVKISCKASGYSFTGYYIHWVKQSHGKSLEWIGRVIPNNGGTSYNQKFKGKAILTVDKSSSTAYMELRSLTSEDSAVYYCAREGIYWWGHGTTLTVSS", "VL": "DVVVTQTPLSLPVSLGAQASISCRSSQSLVHSNGNTFLHWYLQKPGQSPKLLIYTVSNRFSGVPDRFSGSGSGTDFTLKISRVEAEDLGVYFCSQTTHVPWTFGGGTKLEIQ"}}, "key": {"[1]": {"target": "T1, CD40 expressed on the surface of B cells (human, UniProt P25942 21-277)", "T1 sequence (P25942 21-277)": "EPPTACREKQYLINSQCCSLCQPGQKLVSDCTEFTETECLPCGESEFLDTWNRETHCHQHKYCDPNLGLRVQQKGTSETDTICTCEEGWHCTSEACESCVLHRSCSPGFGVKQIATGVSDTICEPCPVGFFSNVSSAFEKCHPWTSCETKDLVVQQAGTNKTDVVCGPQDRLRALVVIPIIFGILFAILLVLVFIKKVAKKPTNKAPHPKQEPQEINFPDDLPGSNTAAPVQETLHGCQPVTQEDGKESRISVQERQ", "assay": "flow cytometry; soluble CD40L titrated on Ramos B cells"}, "[2]": {"target": "T1, CD40 expressed on the surface of B cells", "assay": "cell-based or functional assay"}}, "data": [{"molecule": "recombinant human soluble CD40 ligand (CD154-muCD8), FITC-labeled (from UniProt P29965 47-261; P27548 47-260)", "values": [{"measurement": "saturation concentration", "setting": "[1]", "result": 10, "unit": "µg/mL"}]}, {"molecule": "B1", "values": [{"measurement": "B cell proliferation (3H-thymidine incorporation) with CD40L+ T cell titration and 30 ng/ml mAb, over the level with mAb alone", "setting": "[2]", "result": 1.3, "unit": "fold"}, {"measurement": "activation (proliferation) of primary human peripheral blood B cells with CD40L+ stimulator cells at 4:1 (B:T), against mAb alone", "setting": "[2]", "result": 2, "unit": "fold"}]}, {"molecule": "B2", "values": [{"measurement": "B cell proliferation (3H-thymidine incorporation) with CD40L+ T cell titration and 30 ng/ml mAb, over mAb-only stimulation", "setting": "[2]", "result": 3, "unit": "fold"}, {"measurement": "B cell proliferation of primary human peripheral blood B cells with CD40L+ stimulator cells at 4:1 (B:T), against mAb alone", "setting": "[2]", "result": 16.2, "unit": "fold"}]}]}
